The target in experiment [1] is GLP-2R (GLP-2 receptor) on GLP-2R/Luc-CHO cells. Nature of the experiment: cell-based or functional assay.
In experiment [2] the target is GHR on Ba/f3-GHR cells. As to the kind of experiment: cell-based or functional assay.

The record followed here is patent US20220119448A1.

“GLP-2 (Hangzhou Chinese Peptide Biochemical Co., Ltd., Cat. No: GLUC-002A)”: the in vitro cytological activity, EC50 (luciferase reporter, GLP-2R/Luc-CHO cells) in experiment [1] is 5.2 nM.

In the case of “hGH (human auxin) (from UniProt P01241 27-217) (ligand)”, in experiment [2], the In vitro cytological activity, EC50 (Ba/f3-GHR cells, MTT) amounted to 0.54 nM.
